This note sets out measurements from patent US20240209076A1 (KODIAK SCIENCES, published 2024).

B1: anti-IL-6 Fab, heavy chain F27V (Fab, V domains shown)
VH: EVQLVESGGGLVQPGGSLRLSCAASGVTFSPFAMSWVRQAPGKGLEWVAKISPGGSWTYYSDTVTGRFTFSLDTSKSTAYLQMNSLRAEDTAVYYCARQLWGYYALDIWGQGTLVTVSS
VL: DIQLTQSPSSLSASVGDRVTITCSASISVSYMYWYQQKPGKAPKLLIYDMSNLASGVPSRFSGSGSGTDFTLTISSLQPEDFATYYCMQWSGYPYTFGQGTKVEIK
notes: see m39
B2: anti-IL-6 Fab, heavy chain G26S (Fab, V domains shown)
VH: EVQLVESGGGLVQPGGSLRLSCAASSFTFSPFAMSWVRQAPGKGLEWVAKISPGGSWTYYSDTVTGRFTFSLDTSKSTAYLQMNSLRAEDTAVYYCARQLWGYYALDIWGQGTLVTVSS
VL: DIQLTQSPSSLSASVGDRVTITCSASISVSYMYWYQQKPGKAPKLLIYDMSNLASGVPSRFSGSGSGTDFTLTISSLQPEDFATYYCMQWSGYPYTFGQGTKVEIK
notes: see m39
B3: anti-IL-6 Fab, heavy chain L106F (Fab, V domains shown)
VH: EVQLVESGGGLVQPGGSLRLSCAASGFTFSPFAMSWVRQAPGKGLEWVAKISPGGSWTYYSDTVTGRFTFSLDTSKSTAYLQMNSLRAEDTAVYYCARQLWGYYAFDIWGQGTLVTVSS
VL: DIQLTQSPSSLSASVGDRVTITCSASISVSYMYWYQQKPGKAPKLLIYDMSNLASGVPSRFSGSGSGTDFTLTISSLQPEDFATYYCMQWSGYPYTFGQGTKVEIK
notes: see m39
B4: anti-IL-6 Fab, heavy chain R98G (Fab, V domains shown)
VH: EVQLVESGGGLVQPGGSLRLSCAASGFTFSPFAMSWVRQAPGKGLEWVAKISPGGSWTYYSDTVTGRFTFSLDTSKSTAYLQMNSLRAEDTAVYYCAGQLWGYYALDIWGQGTLVTVSS
VL: DIQLTQSPSSLSASVGDRVTITCSASISVSYMYWYQQKPGKAPKLLIYDMSNLASGVPSRFSGSGSGTDFTLTISSLQPEDFATYYCMQWSGYPYTFGQGTKVEIK
notes: see m39
B5: anti-IL-6 Fab, heavy chain F32V (Fab, V domains shown)
VH: EVQLVESGGGLVQPGGSLRLSCAASGFTFSPVAMSWVRQAPGKGLEWVAKISPGGSWTYYSDTVTGRFTFSLDTSKSTAYLQMNSLRAEDTAVYYCARQLWGYYALDIWGQGTLVTVSS
VL: DIQLTQSPSSLSASVGDRVTITCSASISVSYMYWYQQKPGKAPKLLIYDMSNLASGVPSRFSGSGSGTDFTLTISSLQPEDFATYYCMQWSGYPYTFGQGTKVEIK
notes: see m39
B6: anti-IL-6 Fab, heavy chain S30G (Fab, V domains shown)
VH: EVQLVESGGGLVQPGGSLRLSCAASGFTFGPFAMSWVRQAPGKGLEWVAKISPGGSWTYYSDTVTGRFTFSLDTSKSTAYLQMNSLRAEDTAVYYCARQLWGYYALDIWGQGTLVTVSS
VL: DIQLTQSPSSLSASVGDRVTITCSASISVSYMYWYQQKPGKAPKLLIYDMSNLASGVPSRFSGSGSGTDFTLTISSLQPEDFATYYCMQWSGYPYTFGQGTKVEIK
notes: see m39
B7: anti-IL-6 Fab, heavy chain F32G (Fab, V domains shown)
VH: EVQLVESGGGLVQPGGSLRLSCAASGFTFSPGAMSWVRQAPGKGLEWVAKISPGGSWTYYSDTVTGRFTFSLDTSKSTAYLQMNSLRAEDTAVYYCARQLWGYYALDIWGQGTLVTVSS
VL: DIQLTQSPSSLSASVGDRVTITCSASISVSYMYWYQQKPGKAPKLLIYDMSNLASGVPSRFSGSGSGTDFTLTISSLQPEDFATYYCMQWSGYPYTFGQGTKVEIK
notes: see m39
B8: anti-IL-6 Fab, heavy chain G66D (Fab, V domains shown)
VH: EVQLVESGGGLVQPGGSLRLSCAASGFTFSPFAMSWVRQAPGKGLEWVAKISPGGSWTYYSDTVTDRFTFSLDTSKSTAYLQMNSLRAEDTAVYYCARQLWGYYALDIWGQGTLVTVSS
VL: DIQLTQSPSSLSASVGDRVTITCSASISVSYMYWYQQKPGKAPKLLIYDMSNLASGVPSRFSGSGSGTDFTLTISSLQPEDFATYYCMQWSGYPYTFGQGTKVEIK
notes: see m39
B9: anti-IL-6 Fab, heavy chain I51R (Fab, V domains shown)
VH: EVQLVESGGGLVQPGGSLRLSCAASGFTFSPFAMSWVRQAPGKGLEWVAKRSPGGSWTYYSDTVTGRFTFSLDTSKSTAYLQMNSLRAEDTAVYYCARQLWGYYALDIWGQGTLVTVSS
VL: DIQLTQSPSSLSASVGDRVTITCSASISVSYMYWYQQKPGKAPKLLIYDMSNLASGVPSRFSGSGSGTDFTLTISSLQPEDFATYYCMQWSGYPYTFGQGTKVEIK
notes: see m39
B10: anti-IL-6 Fab, heavy chain G26R (Fab, V domains shown)
VH: EVQLVESGGGLVQPGGSLRLSCAASRFTFSPFAMSWVRQAPGKGLEWVAKISPGGSWTYYSDTVTGRFTFSLDTSKSTAYLQMNSLRAEDTAVYYCARQLWGYYALDIWGQGTLVTVSS
VL: DIQLTQSPSSLSASVGDRVTITCSASISVSYMYWYQQKPGKAPKLLIYDMSNLASGVPSRFSGSGSGTDFTLTISSLQPEDFATYYCMQWSGYPYTFGQGTKVEIK
notes: see m39
B11: anti-IL-6 Fab, heavy chain I108F (Fab, V domains shown)
VH: EVQLVESGGGLVQPGGSLRLSCAASGFTFSPFAMSWVRQAPGKGLEWVAKISPGGSWTYYSDTVTGRFTFSLDTSKSTAYLQMNSLRAEDTAVYYCARQLWGYYALDFWGQGTLVTVSS
VL: DIQLTQSPSSLSASVGDRVTITCSASISVSYMYWYQQKPGKAPKLLIYDMSNLASGVPSRFSGSGSGTDFTLTISSLQPEDFATYYCMQWSGYPYTFGQGTKVEIK
notes: see m39
B12: anti-IL-6 Fab, heavy chain S30W (Fab, V domains shown)
VH: EVQLVESGGGLVQPGGSLRLSCAASGFTFWPFAMSWVRQAPGKGLEWVAKISPGGSWTYYSDTVTGRFTFSLDTSKSTAYLQMNSLRAEDTAVYYCARQLWGYYALDIWGQGTLVTVSS
VL: DIQLTQSPSSLSASVGDRVTITCSASISVSYMYWYQQKPGKAPKLLIYDMSNLASGVPSRFSGSGSGTDFTLTISSLQPEDFATYYCMQWSGYPYTFGQGTKVEIK
notes: see m39
B13: anti-IL-6 Fab, heavy chain S30Y (Fab, V domains shown)
VH: EVQLVESGGGLVQPGGSLRLSCAASGFTFYPFAMSWVRQAPGKGLEWVAKISPGGSWTYYSDTVTGRFTFSLDTSKSTAYLQMNSLRAEDTAVYYCARQLWGYYALDIWGQGTLVTVSS
VL: DIQLTQSPSSLSASVGDRVTITCSASISVSYMYWYQQKPGKAPKLLIYDMSNLASGVPSRFSGSGSGTDFTLTISSLQPEDFATYYCMQWSGYPYTFGQGTKVEIK
notes: see m39
B14: anti-IL-6 Fab, heavy chain G66E (Fab, V domains shown)
VH: EVQLVESGGGLVQPGGSLRLSCAASGFTFSPFAMSWVRQAPGKGLEWVAKISPGGSWTYYSDTVTERFTFSLDTSKSTAYLQMNSLRAEDTAVYYCARQLWGYYALDIWGQGTLVTVSS
VL: DIQLTQSPSSLSASVGDRVTITCSASISVSYMYWYQQKPGKAPKLLIYDMSNLASGVPSRFSGSGSGTDFTLTISSLQPEDFATYYCMQWSGYPYTFGQGTKVEIK
notes: see m39
B15: anti-IL-6 Fab, heavy chain M34W (Fab, V domains shown)
VH: EVQLVESGGGLVQPGGSLRLSCAASGFTFSPFAWSWVRQAPGKGLEWVAKISPGGSWTYYSDTVTGRFTFSLDTSKSTAYLQMNSLRAEDTAVYYCARQLWGYYALDIWGQGTLVTVSS
VL: DIQLTQSPSSLSASVGDRVTITCSASISVSYMYWYQQKPGKAPKLLIYDMSNLASGVPSRFSGSGSGTDFTLTISSLQPEDFATYYCMQWSGYPYTFGQGTKVEIK
notes: see m39
B16: anti-IL-6 Fab, heavy chain S56R (Fab, V domains shown)
VH: EVQLVESGGGLVQPGGSLRLSCAASGFTFSPFAMSWVRQAPGKGLEWVAKISPGGRWTYYSDTVTGRFTFSLDTSKSTAYLQMNSLRAEDTAVYYCARQLWGYYALDIWGQGTLVTVSS
VL: DIQLTQSPSSLSASVGDRVTITCSASISVSYMYWYQQKPGKAPKLLIYDMSNLASGVPSRFSGSGSGTDFTLTISSLQPEDFATYYCMQWSGYPYTFGQGTKVEIK
notes: see m39
B17: anti-IL-6 Fab, heavy chain S56H (Fab, V domains shown)
VH: EVQLVESGGGLVQPGGSLRLSCAASGFTFSPFAMSWVRQAPGKGLEWVAKISPGGHWTYYSDTVTGRFTFSLDTSKSTAYLQMNSLRAEDTAVYYCARQLWGYYALDIWGQGTLVTVSS
VL: DIQLTQSPSSLSASVGDRVTITCSASISVSYMYWYQQKPGKAPKLLIYDMSNLASGVPSRFSGSGSGTDFTLTISSLQPEDFATYYCMQWSGYPYTFGQGTKVEIK
notes: see m39
B18: anti-IL-6 Fab, heavy chain S35H (Fab, V domains shown)
VH: EVQLVESGGGLVQPGGSLRLSCAASGFTFSPFAMHWVRQAPGKGLEWVAKISPGGSWTYYSDTVTGRFTFSLDTSKSTAYLQMNSLRAEDTAVYYCARQLWGYYALDIWGQGTLVTVSS
VL: DIQLTQSPSSLSASVGDRVTITCSASISVSYMYWYQQKPGKAPKLLIYDMSNLASGVPSRFSGSGSGTDFTLTISSLQPEDFATYYCMQWSGYPYTFGQGTKVEIK
notes: see m39
B19: anti-IL-6 Fab, heavy chain F29Y (Fab, V domains shown)
VH: EVQLVESGGGLVQPGGSLRLSCAASGFTYSPFAMSWVRQAPGKGLEWVAKISPGGSWTYYSDTVTGRFTFSLDTSKSTAYLQMNSLRAEDTAVYYCARQLWGYYALDIWGQGTLVTVSS
VL: DIQLTQSPSSLSASVGDRVTITCSASISVSYMYWYQQKPGKAPKLLIYDMSNLASGVPSRFSGSGSGTDFTLTISSLQPEDFATYYCMQWSGYPYTFGQGTKVEIK
notes: see m39
B20: anti-IL-6 Fab, heavy chain S35Q (Fab, V domains shown)
VH: EVQLVESGGGLVQPGGSLRLSCAASGFTFSPFAMQWVRQAPGKGLEWVAKISPGGSWTYYSDTVTGRFTFSLDTSKSTAYLQMNSLRAEDTAVYYCARQLWGYYALDIWGQGTLVTVSS
VL: DIQLTQSPSSLSASVGDRVTITCSASISVSYMYWYQQKPGKAPKLLIYDMSNLASGVPSRFSGSGSGTDFTLTISSLQPEDFATYYCMQWSGYPYTFGQGTKVEIK
notes: see m39
B21: anti-IL-6 Fab, heavy chain F29H (Fab, V domains shown)
VH: EVQLVESGGGLVQPGGSLRLSCAASGFTHSPFAMSWVRQAPGKGLEWVAKISPGGSWTYYSDTVTGRFTFSLDTSKSTAYLQMNSLRAEDTAVYYCARQLWGYYALDIWGQGTLVTVSS
VL: DIQLTQSPSSLSASVGDRVTITCSASISVSYMYWYQQKPGKAPKLLIYDMSNLASGVPSRFSGSGSGTDFTLTISSLQPEDFATYYCMQWSGYPYTFGQGTKVEIK
notes: see m39

The target of the test is recombinant human IL-6 (human, UniProt P05231 30-212). As to the kind of experiment: SPR, IL-6 on CM5 chip, Fab lysate, 25 C. The method, then: Three ranges of antigen density (100-150 RU, 300-400 RU, 400-600 RU) were obtained by using variable flow times for each chip channel, later blocked with ethanolamine. Supernatants of the 96-well filtered culture lysates were injected at 50 μL/min for 120 seconds. Fitting of dissociation curves (300 seconds) to single exponential decay curve was used for the determination of dissociation rates (koff). Chip surfaces were regenerated with 10 mM Glycine pH 1.7 solution injected at 50 μL/min during 60 seconds after every cycle of sample binding and dissociation.
Sequence of recombinant human IL-6 (P05231 30-212 limits assumed): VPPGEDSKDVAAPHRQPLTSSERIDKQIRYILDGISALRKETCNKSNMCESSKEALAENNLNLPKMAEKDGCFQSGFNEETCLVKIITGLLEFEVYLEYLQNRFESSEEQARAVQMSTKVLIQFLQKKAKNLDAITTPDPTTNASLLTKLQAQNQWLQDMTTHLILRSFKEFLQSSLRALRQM
Background: In SPR one partner is held on a chip, and binding of the other changes the refractive index at the surface.
Take B1: the koff – broadly, the rate constant with which the complex falls apart – came out at 0.00405 s⁻¹.

On to B2, for which the koff stood at 0.00375 s⁻¹. Consider B3, for which the koff stood at 0.00601 s⁻¹. The result for B4 reads 0.0048 s⁻¹; that for B5, 0.00541 s⁻¹. The result for B6 reads 0.00377 s⁻¹. B7: the koff was 0.00525 s⁻¹.

In the case of B8, the koff worked out at 0.00607 s⁻¹. Turning to B9, the koff was determined as 0.00315 s⁻¹.

In the case of B10, the dissociation rate constant (koff) was 0.00381 s⁻¹. For the molecule B11, the koff came to 0.0034 s⁻¹. Regarding B12, the off-rate (koff) was found to be 0.00369 s⁻¹.

Consider B13, for which the off-rate (koff) turned out to be 0.00352 s⁻¹. The result for B14 reads 0.00505 s⁻¹; that for B15, 0.00397 s⁻¹. As to B16, the koff came out at 0.00509 s⁻¹. Consider B17, for which the dissociation rate constant (koff) came out at 0.0409 s⁻¹. In the case of B18, the koff stood at 0.00392 s⁻¹. With B19, the koff came to 0.00511 s⁻¹. With B20, the koff turned out to be 0.00354 s⁻¹. On to B21, for which the koff worked out at 0.00524 s⁻¹.
